Source: publication PMC12051234, “NrdR in Streptococcus and Listeria spp.: DNA Helix Phase Dependence of the Bacterial Ribonucleotide Reductase Repressor” (Molecular Microbiology, 2025)

Molecular target: T1, EcoNrdR (Escherichia coli) (UniProt P0A8D0)
T1 sequence: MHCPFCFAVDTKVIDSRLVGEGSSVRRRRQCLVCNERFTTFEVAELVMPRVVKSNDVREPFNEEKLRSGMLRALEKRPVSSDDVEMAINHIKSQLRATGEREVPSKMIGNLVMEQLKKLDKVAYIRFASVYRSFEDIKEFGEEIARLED
Test: MST
Settings: temperature not stated. Lmo: 25 mM Bis-Tris propane pH 6.5, 100 mM KCl, 5 mM MgCl2, 5% glycerol, 1 mM DTT, 0.05% Tween 20, one nucleotide 1 mM or two at 0.

**Q.** For “ACTATTTGCTATATATTGTGTGGTTGAATCTTTTTTCAACTACATCTAGTATCTCTG (double strand) [Eco nrdHIEF wild type]”, which Kd is on record?
**A.** 0.13 µM
